The values below come from patent publication US20220242906A1 (AGENCY FOR SCIENCE TECHNOLOGY AND RESEARCH, published 2022).

The labels stand for the following.
B1: EE-44 (CEMGFFADC) (peptide)
peptide: CEMGFFADC
HELM: PEPTIDE1{C.E.M.G.F.F.A.D.C.[am]}$PEPTIDE1,PEPTIDE1,1:R3-9:R3$$$V2.0
SMILES: CSCC[C@@H]1NC(=O)[C@H](CCC(=O)O)NC(=O)[C@@H](N)CSSC[C@@H](C(N)=O)NC(=O)[C@H](CC(=O)O)NC(=O)[C@H](C)NC(=O)[C@H](Cc2ccccc2)NC(=O)[C@H](Cc2ccccc2)NC(=O)CNC1=O
notes: EE-02 without A1 and G11 and with Q8A
B2: EE-22 (peptide)
peptide: ACEXGFFQDCG
modifications: norleucine (Nle) at position 4; free N-terminal amine; C-terminal amide; disulphide bond between Cys2 and Cys10
notes: EE-02 with M4 replaced by norleucine
B3: EE-19 (peptide)
peptide: ACDMGFFQDCG
HELM: PEPTIDE1{A.C.D.M.G.F.F.Q.D.C.G.[am]}$PEPTIDE1,PEPTIDE1,2:R3-10:R3$$$V2.0
SMILES: CSCC[C@@H]1NC(=O)[C@H](CC(=O)O)NC(=O)[C@@H](NC(=O)[C@H](C)N)CSSC[C@@H](C(=O)NCC(N)=O)NC(=O)[C@H](CC(=O)O)NC(=O)[C@H](CCC(N)=O)NC(=O)[C@H](Cc2ccccc2)NC(=O)[C@H](Cc2ccccc2)NC(=O)CNC1=O
notes: EE-02 with E3D
B4: EE-40 (peptide)
peptide: ACEMGFFGDCG
HELM: PEPTIDE1{A.C.E.M.G.F.F.G.D.C.G.[am]}$PEPTIDE1,PEPTIDE1,2:R3-10:R3$$$V2.0
SMILES: CSCC[C@@H]1NC(=O)[C@H](CCC(=O)O)NC(=O)[C@@H](NC(=O)[C@H](C)N)CSSC[C@@H](C(=O)NCC(N)=O)NC(=O)[C@H](CC(=O)O)NC(=O)CNC(=O)[C@H](Cc2ccccc2)NC(=O)[C@H](Cc2ccccc2)NC(=O)CNC1=O
notes: EE-02 with Q8G
B5: EE-21 (peptide)
peptide: ACELGFFQDCG
HELM: PEPTIDE1{A.C.E.L.G.F.F.Q.D.C.G.[am]}$PEPTIDE1,PEPTIDE1,2:R3-10:R3$$$V2.0
SMILES: CC(C)C[C@@H]1NC(=O)[C@H](CCC(=O)O)NC(=O)[C@@H](NC(=O)[C@H](C)N)CSSC[C@@H](C(=O)NCC(N)=O)NC(=O)[C@H](CC(=O)O)NC(=O)[C@H](CCC(N)=O)NC(=O)[C@H](Cc2ccccc2)NC(=O)[C@H](Cc2ccccc2)NC(=O)CNC1=O
notes: EE-02 with M4L
B6: EE-39 (ACEMGFFKDCG) (peptide)
peptide: ACEMGFFKDCG
HELM: PEPTIDE1{A.C.E.M.G.F.F.K.D.C.G.[am]}$PEPTIDE1,PEPTIDE1,2:R3-10:R3$$$V2.0
SMILES: CSCC[C@@H]1NC(=O)[C@H](CCC(=O)O)NC(=O)[C@@H](NC(=O)[C@H](C)N)CSSC[C@@H](C(=O)NCC(N)=O)NC(=O)[C@H](CC(=O)O)NC(=O)[C@H](CCCCN)NC(=O)[C@H](Cc2ccccc2)NC(=O)[C@H](Cc2ccccc2)NC(=O)CNC1=O
notes: EE-02 with Q8K
B7: EE-31 (peptide)
peptide: ACEMGWFQDCG
HELM: PEPTIDE1{A.C.E.M.G.W.F.Q.D.C.G.[am]}$PEPTIDE1,PEPTIDE1,2:R3-10:R3$$$V2.0
SMILES: CSCC[C@@H]1NC(=O)[C@H](CCC(=O)O)NC(=O)[C@@H](NC(=O)[C@H](C)N)CSSC[C@@H](C(=O)NCC(N)=O)NC(=O)[C@H](CC(=O)O)NC(=O)[C@H](CCC(N)=O)NC(=O)[C@H](Cc2ccccc2)NC(=O)[C@H](Cc2c[nH]c3ccccc23)NC(=O)CNC1=O
notes: EE-02 with F6W
B8: EE-37 (peptide)
peptide: ACEMGYYQDCG
HELM: PEPTIDE1{A.C.E.M.G.Y.Y.Q.D.C.G.[am]}$PEPTIDE1,PEPTIDE1,2:R3-10:R3$$$V2.0
SMILES: CSCC[C@@H]1NC(=O)[C@H](CCC(=O)O)NC(=O)[C@@H](NC(=O)[C@H](C)N)CSSC[C@@H](C(=O)NCC(N)=O)NC(=O)[C@H](CC(=O)O)NC(=O)[C@H](CCC(N)=O)NC(=O)[C@H](Cc2ccc(O)cc2)NC(=O)[C@H](Cc2ccc(O)cc2)NC(=O)CNC1=O
notes: EE-02 with F6Y and F7Y
B9: EE-35 (ACEMGFYQDCG) (peptide)
peptide: ACEMGFYQDCG
HELM: PEPTIDE1{A.C.E.M.G.F.Y.Q.D.C.G.[am]}$PEPTIDE1,PEPTIDE1,2:R3-10:R3$$$V2.0
SMILES: CSCC[C@@H]1NC(=O)[C@H](CCC(=O)O)NC(=O)[C@@H](NC(=O)[C@H](C)N)CSSC[C@@H](C(=O)NCC(N)=O)NC(=O)[C@H](CC(=O)O)NC(=O)[C@H](CCC(N)=O)NC(=O)[C@H](Cc2ccc(O)cc2)NC(=O)[C@H](Cc2ccccc2)NC(=O)CNC1=O
notes: EE-02 with F7Y
B10: EE-41 (ACEMGFFLDCG) (peptide)
peptide: ACEMGFFLDCG
HELM: PEPTIDE1{A.C.E.M.G.F.F.L.D.C.G.[am]}$PEPTIDE1,PEPTIDE1,2:R3-10:R3$$$V2.0
SMILES: CSCC[C@@H]1NC(=O)[C@H](CCC(=O)O)NC(=O)[C@@H](NC(=O)[C@H](C)N)CSSC[C@@H](C(=O)NCC(N)=O)NC(=O)[C@H](CC(=O)O)NC(=O)[C@H](CC(C)C)NC(=O)[C@H](Cc2ccccc2)NC(=O)[C@H](Cc2ccccc2)NC(=O)CNC1=O
notes: EE-02 with Q8L
B11: EE-36 (peptide)
peptide: ACEMGFWQDCG
HELM: PEPTIDE1{A.C.E.M.G.F.W.Q.D.C.G.[am]}$PEPTIDE1,PEPTIDE1,2:R3-10:R3$$$V2.0
SMILES: CSCC[C@@H]1NC(=O)[C@H](CCC(=O)O)NC(=O)[C@@H](NC(=O)[C@H](C)N)CSSC[C@@H](C(=O)NCC(N)=O)NC(=O)[C@H](CC(=O)O)NC(=O)[C@H](CCC(N)=O)NC(=O)[C@H](Cc2c[nH]c3ccccc23)NC(=O)[C@H](Cc2ccccc2)NC(=O)CNC1=O
notes: EE-02 with F7W
B12: EE-30 (ACEMGYFQDCG) (peptide)
peptide: ACEMGYFQDCG
HELM: PEPTIDE1{A.C.E.M.G.Y.F.Q.D.C.G.[am]}$PEPTIDE1,PEPTIDE1,2:R3-10:R3$$$V2.0
SMILES: CSCC[C@@H]1NC(=O)[C@H](CCC(=O)O)NC(=O)[C@@H](NC(=O)[C@H](C)N)CSSC[C@@H](C(=O)NCC(N)=O)NC(=O)[C@H](CC(=O)O)NC(=O)[C@H](CCC(N)=O)NC(=O)[C@H](Cc2ccccc2)NC(=O)[C@H](Cc2ccc(O)cc2)NC(=O)CNC1=O
notes: EE-02 with F6Y
B13: EE-20 (peptide)
peptide: ACEIGFFQDCG
HELM: PEPTIDE1{A.C.E.I.G.F.F.Q.D.C.G.[am]}$PEPTIDE1,PEPTIDE1,2:R3-10:R3$$$V2.0
SMILES: CC[C@H](C)[C@@H]1NC(=O)[C@H](CCC(=O)O)NC(=O)[C@@H](NC(=O)[C@H](C)N)CSSC[C@@H](C(=O)NCC(N)=O)NC(=O)[C@H](CC(=O)O)NC(=O)[C@H](CCC(N)=O)NC(=O)[C@H](Cc2ccccc2)NC(=O)[C@H](Cc2ccccc2)NC(=O)CNC1=O
notes: EE-02 with M4I
B14: EE-23 (peptide)
peptide: ACEXGFFQDCG
HELM: PEPTIDE1{A.C.E.[O=C([C@H](CC1CCC1)N[*:1])[*:2]].G.F.F.Q.D.C.G.[am]}$PEPTIDE1,PEPTIDE1,2:R3-10:R3$$$V2.0
SMILES: C[C@H](N)C(=O)N[C@H]1CSSC[C@@H](C(=O)NCC(N)=O)NC(=O)[C@H](CC(=O)O)NC(=O)[C@H](CCC(N)=O)NC(=O)[C@H](Cc2ccccc2)NC(=O)[C@H](Cc2ccccc2)NC(=O)CNC(=O)[C@H](CC2CCC2)NC(=O)[C@H](CCC(=O)O)NC1=O
notes: EE-02 with M4 replaced by cyclobutylalanine
B15: EE-28 (peptide)
peptide: ACEMXFFQDCG
modifications: sarcosine (Sar) at position 5; free N-terminal amine; C-terminal amide; disulphide bond between Cys2 and Cys10
notes: EE-02 with G5 replaced by sarcosine
B16: PHAGESOL (KKRYSRDQLVAL) (peptide)
peptide: KKRYSRDQLVAL
notes: Phage-derived linear peptive with the canonical motif; also called PHAGSOL; PhageSol peptide

For one assay, the target named is T1, elongation initiation factor 4E (eIF4E) (UniProt P06730 2-217, limits assumed).
T1 construct: mature; In SPR it was amine-coupled to a CM5 chip with m7GTP present; also called full-length eIF4E; GS-eIF4E (biotinylated form used only for phage panning)
T1 sequence (P06730 2-217 limits assumed): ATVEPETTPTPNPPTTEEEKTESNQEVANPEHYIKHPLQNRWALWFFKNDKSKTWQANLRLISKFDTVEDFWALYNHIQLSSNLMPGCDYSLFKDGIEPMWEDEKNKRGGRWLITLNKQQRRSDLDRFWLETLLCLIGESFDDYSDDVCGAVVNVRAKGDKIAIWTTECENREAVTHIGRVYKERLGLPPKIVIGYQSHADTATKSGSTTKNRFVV
Nature of the assay: SPR (Biacore T100), eIF4E immobilised on CM5 chip, peptide as analyte. As to the method:
Running buffer consisted of 10 mM Hepes pH 7.6, 0.15 M NaCl, and 0.1% Tween20. Stock/DMSO diluted peptide solutions were diluted into 1.03× running buffer to make a peptide solution with 3% DMSO final concentration. […] Surface Plasmon resonance experiments were performed on a Biacore T100 machine.
Pure eIF4E was immnobilized on a CM5 sensor chip. The CM5 chip was conditioned with a 6 s injection of 100 mM HCL, followed by a 6 s injection of 0.1% SDS and completed with a 6 s injection of 50 mM NaOH at a flow rate of 100 μl/min. Activation of the sensor chip surface was performed with a mixture of NHS (115 mg ml⁻¹) and EDC (750 mg ml⁻¹) for 7 min at 10 μl min⁻¹. Purified eIF4E was diluted with 10 mM sodium acetate buffer (pH 5.0) to a final concentration of 0.5 μM with m⁷GTP present in a 2:1 ratio in order to stabilize eIF4E. The amount of eIF4E immobilized on the activated surface was controlled by altering the contact time of the protein solution and was approximately 1000 RU. After the immobilization of the protein, a 7-min injection (at 10 μl min⁻¹) of 1 M ethanolamine (pH 8.5) was used to quench excess active succinimide ester groups.
Six buffer blanks were first injected to equilibrate the instrument fully and then a solvent correction curve was performed followed by a further two blank injections. […] Using a flow rate of 50 μl/min, compounds were injected for 60 s and dissociation was monitored for 180 s. The data collection rate was 10 Hz. Kds were determined using the BiaEvaluation software (Biacore) and calculated from both the response of the eIF4E coated CM5 chips at equilibrium and also kinetically from the dissociation and association phase data for each of the peptides. Both the equilibrium and kinetic data were fitted to 1:1 binding models. Each individual peptide Kd was determined from three separate titrations. Within each titration at least two concentration points were duplicated to ensure stability and robustness of the chip surface.
Background: In SPR one partner is held on a chip, and binding of the other changes the refractive index at the surface.
Regarding B1, the “Fold change (KD against EE-2)” value amounted to 0.4 fold and binding was characterised by a dissociation constant (Kd) of 79 nM.
Molecule B2 displayed a Kd of 520 nM.
Regarding B3, the Kd turned out to be 26000 nM.
Consider B4, for which the “Fold change (KD against EE-2)” value is 1.9 fold and the Kd is 400 nM.
For the molecule B5, the Kd was 2500 nM.
For the molecule B6, the “Fold change (KD against EE-2)” value amounted to 0.5 fold and binding was characterised by a dissociation constant (Kd) of 109 nM.
B7 gave a Kd of 5900 nM.
With B8, binding was characterised by a dissociation constant (Kd) of 350 nM.
On the same count and under the same terms, under B9 stands 137 nM.
Take B10: the “Fold change (KD against EE-2)” value was determined as 0.9 fold and binding was put at a Kd of 190 nM.
For the molecule B11, binding was put at a Kd of 2600 nM.
The molecule B12 came in with a Kd of 85 nM.
In turn, B13 showed a Kd of 1600 nM.
On the same count and under the same terms, under B14 stands 35000 nM; under B15, 4200 nM.

In the next assay the target is T1, elongation initiation factor 4E (eIF4E). Nature of the assay: competitive fluorescence anisotropy, panel 'Peptide Interaction Site': displacement of the FAM labelled tracer peptide …-(FAM) (50 nM) from eIF4E (200 nM) [cont'd) B]. The protocol: Apparent Kd values were then determined for a variety of molecules via competitive anisotropy experiments.
[L]ₛₜ and [L]ₜ denote labeled ligand and total unlabeled ligand input concentrations, respectively. Kd2 is the dissociation constant of the interaction between the unlabelled ligand and the protein. In all competitive types of experiments, it is assumed that [P]ₜ>[L]ₛₜ, otherwise considerable amounts of free labeled ligand would always be present and would interfere with measurements. Kd1 is the apparent Kd for the labeled peptide used in the respective experiment. […] Readings were carried out with a Envision Multi-label Reader (PerkinElmer). […] All titrations were carried out in triplicate. Curve-fitting was carried out using Prism 4.0 (GraphPad).
(In general: In fluorescence polarisation assays a small probe gives low polarisation when free and higher when bound to something large.)
Take B16: the “IC50 (read off the curve)” value is ~0.4 µM.

Usually Kd stands for the equilibrium constant for the complex coming apart. Read a low Kd as higher affinity.
